We go through 6 molecules from PMC9582199, “Molecular architecture of the glycogen- committed PP1/PTG holoenzyme” (Nature Communications, 2022).

Read-outs that look alike come from different tables or passages of the source.

Test [1] deals with PP1 (Homo sapiens) (UniProt P62136). The following applies: cited from earlier work.
In the next test the target is GM CBM21. The following applies: cited from earlier work. The source says: The same two sugar-binding sites have been identified in the crystal structures of Rhizopus oryzae CBM21[13],[14]; site II is the primary binding site, while site I has been hypothesized to contribute to the binding of long-chain soluble polysaccharides and insoluble starch or to the relaxation and unwinding of helical amylose[15],[16].

For test [2], the target named is PP1 (Homo sapiens) (UniProt P62136). As to conditions: cited from earlier work. The source holds these as a separate data set.
The next test concerns the target T1, PP1 7-330 (Homo sapiens, UniProt P62136).
T1 construct: reversibly capturing 6xHis-tagged PP1^7-330; host or cells: E. coli BL21 (DE3) pGro7
As to the kind of experiment: GCI binding of immobilized PTG constructs to PP1 as analyte. The following applies: GCI titrations, compared with PTG peptides 81–107 and 81–132. The procedure: Grating-coupled interferometry (GCI) experiments were performed using the Creoptix WAVE system, a new generation instrument for the high-sensitivity kinetics and affinity analysis of label-free molecular interactions based on the waveguide interferometry technology. Waveguide interferometry exceeds the sensitivity levels of Surface Plasmon Resonance (SPR). […] GCI allows getting high resolution even at very low signal levels with low noise without artificial data averaging and reliable kinetics below 1 pg/mm^2. By the lower immobilization levels that are required, it avoids mass transport limitations. It covers the broadest kinetic range with the capability of analyzing of the ultra-fast transition times (i.e. 150 ms). It allows the reliable determination of off-rates of 5 s^–1 and even faster, enabling off-rate screening of weakly binding analytes. GCI can be applied to a wide range of pharmacological targets, with improved results on very low molecular weight compounds, to the dimensions of metal ions[56].
WAVE chips are composed of four channels or cells. Borate buffer (100 mM sodium borate pH 9.0, 1 M NaCl) was used for chip conditioning. To evaluate the kinetics of the PTG interaction with β-cyclodextrin and PP1, PTG^70-264 (20 µg/ml in buffer acetate pH 5.0) was immobilized on 4PCH WAVE chips (quasiplanar polycarboxylate surface; Creoptix) by standard amine coupling according to the manufacturer’s instructions at a density of 1800 pg/mm^2 and 1000 pg/mm^2 for β-cyclodextrin and PP1^7-330, respectively (Supplementary Figs. 8, 9). Regeneration-free injections of a 1:3 dilution series from 500 µM for β-cyclodextrin in running buffer (10 mM Hepes pH 7.2, 150 mM NaCl, 0.005% Tween 20) were performed at 25 °C, using a flow rate of 100 μl/min. Similarly, regeneration-free injections of a 1:2 dilution series from 400 nM for PP1^7-330 in the same running buffer were performed at 25 °C, using a flow rate of 30 μl/min. […]
Supplementary Figure 3: Quantitative binding kinetics by GCI. […]

Another test concerns the target 6xHis-tagged PP1^7-330 (UniProt P62136 7-330, Mn2+ in active site (expressed and purified with MnCl2); N-terminal 6xHis tag used for capture, left out. Alpha isoform taken from the authors' PDB entries 7QFB/7QM2 and the residue numbering). As to the kind of experiment: grating-coupled interferometry (GCI); 6xHis-tagged PP1 7-330 reversibly captured on 4PCP-NTA WAVE chip (3600 or 1600 pg/mm^2); peptides injected, 1:2 dilution series from 300 nM; 25 °C; 10 mM Hepes pH 7.2, 150 mM NaCl, 0.005% Tween 20, 0.2 mg/ml BSA; mass transport binding model. As to conditions: both partners purified.

T1 sequence (P62136 7-330): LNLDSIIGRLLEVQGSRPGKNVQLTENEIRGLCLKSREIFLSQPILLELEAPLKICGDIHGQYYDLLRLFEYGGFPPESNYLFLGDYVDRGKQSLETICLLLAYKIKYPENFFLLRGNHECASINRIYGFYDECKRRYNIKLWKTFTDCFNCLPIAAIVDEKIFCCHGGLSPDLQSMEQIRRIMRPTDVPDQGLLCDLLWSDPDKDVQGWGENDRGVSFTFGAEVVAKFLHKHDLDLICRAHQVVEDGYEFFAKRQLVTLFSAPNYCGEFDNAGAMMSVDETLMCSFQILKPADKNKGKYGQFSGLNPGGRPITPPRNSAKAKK
Sequence of PP1 (Homo sapiens) (P62136 2-330): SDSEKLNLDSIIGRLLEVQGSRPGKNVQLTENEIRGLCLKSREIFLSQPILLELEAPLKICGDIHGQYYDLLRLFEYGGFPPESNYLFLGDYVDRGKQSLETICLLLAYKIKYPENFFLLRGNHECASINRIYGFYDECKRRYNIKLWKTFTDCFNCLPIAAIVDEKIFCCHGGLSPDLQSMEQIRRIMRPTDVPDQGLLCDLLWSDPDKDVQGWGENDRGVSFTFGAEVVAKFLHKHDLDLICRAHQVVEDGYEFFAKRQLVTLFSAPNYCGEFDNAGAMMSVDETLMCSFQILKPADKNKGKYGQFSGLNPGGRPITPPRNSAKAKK
Sequence of 6xHis-tagged PP1^7-330 (P62136 7-330): as the sequence (P62136 7-330) above

As for GM 64-105 (from UniProt Q00756), in the test with PP1 (Homo sapiens) [1], the dissociation constant Kd was 0.114 µM.
Regarding `OC[C@H]1O[C@@H]2O[C@H]3[C@H](O)[C@@H](O)[C@@H](O[C@H]4[C@H](O)[C@@H](O)[C@@H](O[C@H]5[C@H](O)[C@@H](O)[C@@H](O[C@H]6[C@H](O)[C@@H](O)[C@@H](O[C@H]7[C@H](O)[C@@H](O)[C@@H](O[C@H]1[C@H](O)[C@H]2O)O[C@@H]7CO)O[C@@H]6CO)O[C@@H]5CO)O[C@@H]4CO)O[C@@H]3CO` [α-cyclodextrin], the Kd at GM CBM21 was 27.6 µM.
For GM 64-237 (from UniProt Q00756), in the test with PP1 (Homo sapiens) [2], the Kd is 0.021 µM.

B1: PTG70-264: recombinant human PTG residues 70–264, encompassing the PP1-binding region and the CBM21 (protein)
chain: SQNDWKCSHNQAKKRVVFADSKGLSLTAIHVFSDLPEEPAWDLQFDLLDLNDISSALKHHEEKNLILDFPQPSTDYLSFRSHFQKNFVCLENCSLQERTVTGTVKVKNVSFEKKVQIRITFDSWKNYTDVDCVYMKNVYGGTDSDTFSFAIDLPPVIPTEQKIEFCISYHANGQVFWDNNDGQNYRIVHVQWKPD
modifications: left off: GST, N-terminal, cleaved
Turning to B1, the “binding to PP1 (in words)” value with PP1 7-330 is recorded as “did not bind PP1 any better”.

B2: CBM21 aa. 132–264: recombinant PTG carbohydrate-binding module 21, residues 132–264 (protein)
chain: KNLILDFPQPSTDYLSFRSHFQKNFVCLENCSLQERTVTGTVKVKNVSFEKKVQIRITFDSWKNYTDVDCVYMKNVYGGTDSDTFSFAIDLPPVIPTEQKIEFCISYHANGQVFWDNNDGQNYRIVHVQWKPD
modifications: left off: His6, N-terminal, cleaved
On to B2, for which the “binding to PP1 (in words)” value is recorded as “no interaction was detected” with PP1 7-330 and “undetectable binding” with PP1 7-330 (listed as isolated CBM21).

B3: PTG peptide 81-107 (peptide, UniProt Q9UQK1 81-107, looked up)
peptide: AKKRVVFADSKGLSLTAIHVFSDLPEE
notes: also called PTG N-terminal peptide; source: synthetic peptide, bought: ProteoGenix SAS
B3: the Kd in the test with 6xHis-tagged PP1^7-330 stood at 0.014 µM.
